Legend:
[1] = target: T1, FcγRIIb extracellular domain with C-terminal His tag (human, UniProt P31994 43-217); assay: SPR (Biacore), relative binding
T1 construct: extracellular domain; also called FcgRIIb; 2b; not shown: His tag attached to the C terminus
T1 sequence (looked up): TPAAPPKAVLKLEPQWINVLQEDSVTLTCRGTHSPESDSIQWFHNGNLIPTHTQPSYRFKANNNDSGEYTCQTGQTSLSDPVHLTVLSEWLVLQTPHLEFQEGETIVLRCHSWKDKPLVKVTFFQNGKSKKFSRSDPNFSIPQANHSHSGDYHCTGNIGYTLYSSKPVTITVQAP
Procedure: (§1) Analysis of interaction between objective antibody and the FcγR was carried out using Biacore T100 (GE Healthcare). HBS-EP+ (GE Healthcare) was used as the running buffer, and the measurement temperature was set to 25° C. Chips produced by immobilizing the antigen peptide by the amine coupling method to a Series S Sencor Chip CM5 (GE Healthcare), or alternatively, chips produced by allowing preliminarily biotinylated antigen peptides to interact with and immobilize onto a Series S Sensor Chip SA (certified) (GE Healthcare) were used. Antibodies of interest were captured onto an antigen peptide-immobilized chip, and allowed to interact to each FcγR diluted with running buffer. To regenerate and repeatedly use the chip, the antibodies captured on the chip were washed off by reacting 10 mM glycine-HCl, pH 1.5.
(§2) The FcγR-binding activity of each antibody was assessed primarily using as an indicator the FcγR-binding activity and dissociation constant for FcγR.

[2] = target: T2, FcγRIIIa extracellular domain with C-terminal His tag (human, UniProt P08637 17-208); assay: SPR (Biacore), relative binding
T2 construct: extracellular domain; also called FcgRIIIa; 3a; not shown: His tag attached to the C terminus
Procedure: as §1, §2

[3] = target: T2, FcγRIIIa extracellular domain with …; assay: SPR (Biacore); He/Con_3a divided by He/Con_2b (reference: binding to FcγRIIb)
Procedure: as §1, §2

T2 sequence (P08637 17-208): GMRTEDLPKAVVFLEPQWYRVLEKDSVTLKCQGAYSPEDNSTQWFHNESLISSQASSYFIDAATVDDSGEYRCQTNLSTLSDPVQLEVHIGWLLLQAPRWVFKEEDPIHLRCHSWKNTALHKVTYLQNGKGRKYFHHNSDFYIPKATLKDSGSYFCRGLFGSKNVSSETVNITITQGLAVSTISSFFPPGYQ

| He/Con_2b (IIb binding) [1] | He/Con_3a (IIIa binding) [2] | He_3a/2b (IIIa/IIb) [3] [ratio] | Binder |
| --- | --- | --- | --- |
| 78.8 % of GpH7-A5/GpH7-B3/GpL16-k0 (=100) | 51.2 % of GpH7-A5/GpH7-B3/GpL16-k0 (=100) | 0.65 | GpH7-A5/GpH7-B3 variant A327_20W/GpL16-k0 (antibody, human IgG1, kappa, Heterodimerized IgG1; alteration in one H chain only; also called He Ab) heavy 1: not shown heavy 2: not shown light: DIVMTQSPLSLPVTPGEPASISCQASESLVHSNRNTYLHWYLQKPGQSPQLLIYKVSNRFSGVPDRFSGSGSGTDFTLKISRVEAEDVGVYYCSQNTHVPPTFGQGTKVEIERTVAAPSVFIFPPSDEQLKSGTASVVCLLNNFYPREAKVQWKVDNALQSGNSQESVTEQDSKDSTYSLSSTLTLSKADYEKHKVYACEVTHQGLSSPVTKSFNRGEC |
| 175 % of GpH7-A5/GpH7-B3/GpL16-k0 (=100) | 122 % of GpH7-A5/GpH7-B3/GpL16-k0 (=100) | 0.7 | GpH7-A5/GpH7-B3 variant K326_03V/GpL16-k0 (antibody, human IgG1, kappa, Heterodimerized IgG1; alteration in one H chain only; also called He Ab) heavy 1: not shown heavy 2: not shown light: DIVMTQSPLSLPVTPGEPASISCQASESLVHSNRNTYLHWYLQKPGQSPQLLIYKVSNRFSGVPDRFSGSGSGTDFTLKISRVEAEDVGVYYCSQNTHVPPTFGQGTKVEIERTVAAPSVFIFPPSDEQLKSGTASVVCLLNNFYPREAKVQWKVDNALQSGNSQESVTEQDSKDSTYSLSSTLTLSKADYEKHKVYACEVTHQGLSSPVTKSFNRGEC |
| 144 % of GpH7-A5/GpH7-B3/GpL16-k0 (=100) | 79.1 % of GpH7-A5/GpH7-B3/GpL16-k0 (=100) | 0.55 | GpH7-A5/GpH7-B3 variant L328_02A/GpL16-k0 (antibody, human IgG1, kappa, Heterodimerized IgG1; alteration in one H chain only; also called He Ab) heavy 1: not shown heavy 2: not shown light: DIVMTQSPLSLPVTPGEPASISCQASESLVHSNRNTYLHWYLQKPGQSPQLLIYKVSNRFSGVPDRFSGSGSGTDFTLKISRVEAEDVGVYYCSQNTHVPPTFGQGTKVEIERTVAAPSVFIFPPSDEQLKSGTASVVCLLNNFYPREAKVQWKVDNALQSGNSQESVTEQDSKDSTYSLSSTLTLSKADYEKHKVYACEVTHQGLSSPVTKSFNRGEC |
| 148 % of GpH7-A5/GpH7-B3/GpL16-k0 (=100) | 84.8 % of GpH7-A5/GpH7-B3/GpL16-k0 (=100) | 0.57 | GpH7-A5/GpH7-B3 variant K326_20W/GpL16-k0 (antibody, human IgG1, kappa, Heterodimerized IgG1; alteration in one H chain only; also called He Ab) heavy 1: not shown heavy 2: not shown light: DIVMTQSPLSLPVTPGEPASISCQASESLVHSNRNTYLHWYLQKPGQSPQLLIYKVSNRFSGVPDRFSGSGSGTDFTLKISRVEAEDVGVYYCSQNTHVPPTFGQGTKVEIERTVAAPSVFIFPPSDEQLKSGTASVVCLLNNFYPREAKVQWKVDNALQSGNSQESVTEQDSKDSTYSLSSTLTLSKADYEKHKVYACEVTHQGLSSPVTKSFNRGEC |
| 155 % of GpH7-A5/GpH7-B3/GpL16-k0 (=100) | 103 % of GpH7-A5/GpH7-B3/GpL16-k0 (=100) | 0.66 | GpH7-A5/GpH7-B3 variant K326_04F/GpL16-k0 (antibody, human IgG1, kappa, Heterodimerized IgG1; alteration in one H chain only; also called He Ab) heavy 1: not shown heavy 2: not shown light: DIVMTQSPLSLPVTPGEPASISCQASESLVHSNRNTYLHWYLQKPGQSPQLLIYKVSNRFSGVPDRFSGSGSGTDFTLKISRVEAEDVGVYYCSQNTHVPPTFGQGTKVEIERTVAAPSVFIFPPSDEQLKSGTASVVCLLNNFYPREAKVQWKVDNALQSGNSQESVTEQDSKDSTYSLSSTLTLSKADYEKHKVYACEVTHQGLSSPVTKSFNRGEC |
| 193 % of GpH7-A5/GpH7-B3/GpL16-k0 (=100) | 134 % of GpH7-A5/GpH7-B3/GpL16-k0 (=100) | 0.69 | GpH7-A5/GpH7-B3 variant K326_09D/GpL16-k0 (antibody, human IgG1, kappa, Heterodimerized IgG1; alteration in one H chain only; also called He Ab) heavy 1: not shown heavy 2: not shown light: DIVMTQSPLSLPVTPGEPASISCQASESLVHSNRNTYLHWYLQKPGQSPQLLIYKVSNRFSGVPDRFSGSGSGTDFTLKISRVEAEDVGVYYCSQNTHVPPTFGQGTKVEIERTVAAPSVFIFPPSDEQLKSGTASVVCLLNNFYPREAKVQWKVDNALQSGNSQESVTEQDSKDSTYSLSSTLTLSKADYEKHKVYACEVTHQGLSSPVTKSFNRGEC |
| 139 % of GpH7-A5/GpH7-B3/GpL16-k0 (=100) | 106 % of GpH7-A5/GpH7-B3/GpL16-k0 (=100) | 0.76 | GpH7-A5/GpH7-B3 variant K326_19Q/GpL16-k0 (antibody, human IgG1, kappa, Heterodimerized IgG1; alteration in one H chain only; also called He Ab) heavy 1: not shown heavy 2: not shown light: DIVMTQSPLSLPVTPGEPASISCQASESLVHSNRNTYLHWYLQKPGQSPQLLIYKVSNRFSGVPDRFSGSGSGTDFTLKISRVEAEDVGVYYCSQNTHVPPTFGQGTKVEIERTVAAPSVFIFPPSDEQLKSGTASVVCLLNNFYPREAKVQWKVDNALQSGNSQESVTEQDSKDSTYSLSSTLTLSKADYEKHKVYACEVTHQGLSSPVTKSFNRGEC |
| 159 % of GpH7-A5/GpH7-B3/GpL16-k0 (=100) | 112 % of GpH7-A5/GpH7-B3/GpL16-k0 (=100) | 0.7 | GpH7-A5/GpH7-B3 variant K326_15Y/GpL16-k0 (antibody, human IgG1, kappa, Heterodimerized IgG1; alteration in one H chain only; also called He Ab) heavy 1: not shown heavy 2: not shown light: DIVMTQSPLSLPVTPGEPASISCQASESLVHSNRNTYLHWYLQKPGQSPQLLIYKVSNRFSGVPDRFSGSGSGTDFTLKISRVEAEDVGVYYCSQNTHVPPTFGQGTKVEIERTVAAPSVFIFPPSDEQLKSGTASVVCLLNNFYPREAKVQWKVDNALQSGNSQESVTEQDSKDSTYSLSSTLTLSKADYEKHKVYACEVTHQGLSSPVTKSFNRGEC |
| 199 % of GpH7-A5/GpH7-B3/GpL16-k0 (=100) | 139 % of GpH7-A5/GpH7-B3/GpL16-k0 (=100) | 0.7 | GpH7-A5/GpH7-B3 variant K326_07I/GpL16-k0 (antibody, human IgG1, kappa, Heterodimerized IgG1; alteration in one H chain only; also called He Ab) heavy 1: not shown heavy 2: not shown light: DIVMTQSPLSLPVTPGEPASISCQASESLVHSNRNTYLHWYLQKPGQSPQLLIYKVSNRFSGVPDRFSGSGSGTDFTLKISRVEAEDVGVYYCSQNTHVPPTFGQGTKVEIERTVAAPSVFIFPPSDEQLKSGTASVVCLLNNFYPREAKVQWKVDNALQSGNSQESVTEQDSKDSTYSLSSTLTLSKADYEKHKVYACEVTHQGLSSPVTKSFNRGEC |
| 177 % of GpH7-A5/GpH7-B3/GpL16-k0 (=100) | 114 % of GpH7-A5/GpH7-B3/GpL16-k0 (=100) | 0.65 | GpH7-A5/GpH7-B3 variant K326_08L/GpL16-k0 (antibody, human IgG1, kappa, Heterodimerized IgG1; alteration in one H chain only; also called He Ab) heavy 1: not shown heavy 2: not shown light: DIVMTQSPLSLPVTPGEPASISCQASESLVHSNRNTYLHWYLQKPGQSPQLLIYKVSNRFSGVPDRFSGSGSGTDFTLKISRVEAEDVGVYYCSQNTHVPPTFGQGTKVEIERTVAAPSVFIFPPSDEQLKSGTASVVCLLNNFYPREAKVQWKVDNALQSGNSQESVTEQDSKDSTYSLSSTLTLSKADYEKHKVYACEVTHQGLSSPVTKSFNRGEC |
| 165 % of GpH7-A5/GpH7-B3/GpL16-k0 (=100) | 115 % of GpH7-A5/GpH7-B3/GpL16-k0 (=100) | 0.7 | GpH7-A5/GpH7-B3 variant K326_06M/GpL16-k0 (antibody, human IgG1, kappa, Heterodimerized IgG1; alteration in one H chain only; also called He Ab) heavy 1: not shown heavy 2: not shown light: DIVMTQSPLSLPVTPGEPASISCQASESLVHSNRNTYLHWYLQKPGQSPQLLIYKVSNRFSGVPDRFSGSGSGTDFTLKISRVEAEDVGVYYCSQNTHVPPTFGQGTKVEIERTVAAPSVFIFPPSDEQLKSGTASVVCLLNNFYPREAKVQWKVDNALQSGNSQESVTEQDSKDSTYSLSSTLTLSKADYEKHKVYACEVTHQGLSSPVTKSFNRGEC |
| 200 % of GpH7-A5/GpH7-B3/GpL16-k0 (=100) | 124 % of GpH7-A5/GpH7-B3/GpL16-k0 (=100) | 0.62 | GpH7-A5/GpH7-B3 variant K326_10E/GpL16-k0 (antibody, human IgG1, kappa, Heterodimerized IgG1; alteration in one H chain only; also called He Ab) heavy 1: not shown heavy 2: not shown light: DIVMTQSPLSLPVTPGEPASISCQASESLVHSNRNTYLHWYLQKPGQSPQLLIYKVSNRFSGVPDRFSGSGSGTDFTLKISRVEAEDVGVYYCSQNTHVPPTFGQGTKVEIERTVAAPSVFIFPPSDEQLKSGTASVVCLLNNFYPREAKVQWKVDNALQSGNSQESVTEQDSKDSTYSLSSTLTLSKADYEKHKVYACEVTHQGLSSPVTKSFNRGEC |
| 80.2 % of GpH7-A5/GpH7-B3/GpL16-k0 (=100) | 44.9 % of GpH7-A5/GpH7-B3/GpL16-k0 (=100) | 0.56 | GpH7-A5/GpH7-B3 variant L328_01G/GpL16-k0 (antibody, human IgG1, kappa, Heterodimerized IgG1; alteration in one H chain only; also called He Ab) heavy 1: not shown heavy 2: not shown light: DIVMTQSPLSLPVTPGEPASISCQASESLVHSNRNTYLHWYLQKPGQSPQLLIYKVSNRFSGVPDRFSGSGSGTDFTLKISRVEAEDVGVYYCSQNTHVPPTFGQGTKVEIERTVAAPSVFIFPPSDEQLKSGTASVVCLLNNFYPREAKVQWKVDNALQSGNSQESVTEQDSKDSTYSLSSTLTLSKADYEKHKVYACEVTHQGLSSPVTKSFNRGEC |

— patent US20180155451A1 (published 2018)
